Data published in patent US20110263827A1 (AbbVie / Abbott, published 2011).

Tests used:
EGFR [1] = biological target: T1, EGFR (UniProt P00533 25-645, limits assumed, biotinylated); test: direct bind ELISA, C-term VD;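 further: ELISA with antibody or DVD-Ig preparations applied to target antigen-coated plates for 1 h at room temperature, TMB colour development, absorbance read at 450 nm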
T1 construct: ELISA antigen; construct not described

VEGF [2] = biological target: T2, VEGF (UniProt P15692-4 27-191, limits assumed, biotinylated); test: direct bind ELISA, N-term VD;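 further: antibody or DVD-Ig preparations bound to immobilized target antigen on ELISA plates, 1 h at room temperature, TMB detection read as absorbance at 450 nm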
T2 construct: ELISA antigen

VEGF [3] = biological target: T2, VEGF; test: direct bind ELISA, C-term VD;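 further: ELISA with antibody or DVD-Ig preparations applied to target antigen-coated plates for 1 h at room temperature, TMB colour development, absorbance read at 450 nm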
EGFR [4] = biological target: T1, EGFR; test: direct bind ELISA, N-term VD;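 further: antibody or DVD-Ig preparations bound to immobilized target antigen on ELISA plates, 1 h at room temperature, TMB detection read as absorbance at 450 nm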

B1: DVD780 (bispecific antibody)
VH: EVQLVESGGGLVQPGGSLRLSCAASGYTFTNYGMNWVRQAPGKGLEWVGWINTYTGEPTYAADFKRRFTFSLDTSKSTAYLQMNSLRAEDTAVYYCAKYPHYYGSSHWYFDVWGQGTLVTVSSASTKGPSVFPLAPQVQLQESGPGLVKPSQTLSLTCTVSGYSISSDFAWNWIRQPPGKGLEWMGYISYSGNTRYQPSLKSRITISRDTSKNQFFLKLNSVTAADTATYYCVTAGRGFPYWGQGTLVTVSS
VL: DIQMTQSPSSLSASVGDRVTITCSASQDISNYLNWYQQKPGKAPKVLIYFTSSLHSGVPSRFSGSGSGTDFTLTISSLQPEDFATYYCQQYSTVPWTFGQGTKVEIKRTVAAPSVFIFPPDIQMTQSPSSMSVSVGDRVTITCHSSQDINSNIGWLQQKPGKSFKGLIYHGTNLDDGVPSRFSGSGSGTDYTLTISSLQPEDFATYYCVQYAQFPWTFGGGTKLEIKR
notes: DVD-Ig; HC L, LC L; variable parts only
EC50 (EGFR [1]): 409 nM
EC50 (VEGF [2]): 2.19 nM

B2: DVD790 (bispecific antibody)
VH: EVQLVESGGGLVQPGGSLRLSCAASGFTISDYWIHWVRQAPGKGLEWVAGITPAGGYTYYADSVKGRFTISADTSKNTAYLQMNSLRAEDTAVYYCARFVFFLPYAMDYWGQGTLVTVSSASTKGPSVFPLAPQVQLQESGPGLVKPSQTLSLTCTVSGYSISSDFAWNWIRQPPGKGLEWMGYISYSGNTRYQPSLKSRITISRDTSKNQFFLKLNSVTAADTATYYCVTAGRGFPYWGQGTLVTVSS
VL: DIQMTQSPSSLSASVGDRVTITCRASQDVSTAVAWYQQKPGKAPKLLIYSASFLYSGVPSRFSGSGSGTDFTLTISSLQPEDFATYYCQQSYTTPPTFGQGTKVEIKRTVAAPSVFIFPPDIQMTQSPSSMSVSVGDRVTITCHSSQDINSNIGWLQQKPGKSFKGLIYHGTNLDDGVPSRFSGSGSGTDYTLTISSLQPEDFATYYCVQYAQFPWTFGGGTKLEIKR
notes: as for B1
EC50 (EGFR [1]): 76.8 nM
EC50 (VEGF [2]): 15.9 nM

B3: DVD792 (bispecific antibody)
VH: EVQLVESGGGLVQPGGSLRLSCAASGFTINASWIHWVRQAPGKGLEWVGAIYPYSGYTNYADSVKGRFTISADTSKNTAYLQMNSLRAEDTAVYYCARWGHSTSPWAMDYWGQGTLVTVSSASTKGPSVFPLAPQVQLQESGPGLVKPSQTLSLTCTVSGYSISSDFAWNWIRQPPGKGLEWMGYISYSGNTRYQPSLKSRITISRDTSKNQFFLKLNSVTAADTATYYCVTAGRGFPYWGQGTLVTVSS
VL: DIQMTQSPSSLSASVGDRVTITCRASQVIRRSLAWYQQKPGKAPKLLIYAASNLASGVPSRFSGSGSGTDFTLTISSLQPEDFATYYCQQSNTSPLTFGQGTKVEIKRTVAAPSVFIFPPDIQMTQSPSSMSVSVGDRVTITCHSSQDINSNIGWLQQKPGKSFKGLIYHGTNLDDGVPSRFSGSGSGTDYTLTISSLQPEDFATYYCVQYAQFPWTFGGGTKLEIKR
notes: as for B1
EC50 (EGFR [1]): 48.6 nM
EC50 (VEGF [2]): 0.82 nM

B4: DVD810 (bispecific antibody)
VH: EVQLVESGGGLVQPGGSLRLSCAASGYTFTNYGMNWVRQAPGKGLEWVGWINTYTGEPTYAADFKRRFTFSLDTSKSTAYLQMNSLRAEDTAVYYCAKYPHYYGSSHWYFDVWGQGTLVTVSSASTKGPSVFPLAPQVQLQESGPGLVKPSQTLSLTCTVSGYSISSDFAWNWIRQPPGKGLEWMGYISYSGNTRYQPSLKSRITISRDTSKNQFFLKLNSVTAADTATYYCVTAGRGFPYWGQGTLVTVSS
VL: DIQMTQSPSSLSASVGDRVTITCSASQDISNYLNWYQQKPGKAPKVLIYFTSSLHSGVPSRFSGSGSGTDFTLTISSLQPEDFATYYCQQYSTVPWTFGQGTKVEIKRTVAAPDIQMTQSPSSMSVSVGDRVTITCHSSQDINSNIGWLQQKPGKSFKGLIYHGTNLDDGVPSRFSGSGSGTDYTLTISSLQPEDFATYYCVQYAQFPWTFGGGTKLEIKR
notes: DVD-Ig; HC L, LC S; variable parts only
EC50 (EGFR [1]): 228 nM
EC50 (VEGF [2]): 0.33 nM

B5: DVD820 (bispecific antibody)
VH: EVQLVESGGGLVQPGGSLRLSCAASGFTISDYWIHWVRQAPGKGLEWVAGITPAGGYTYYADSVKGRFTISADTSKNTAYLQMNSLRAEDTAVYYCARFVFFLPYAMDYWGQGTLVTVSSASTKGPSVFPLAPQVQLQESGPGLVKPSQTLSLTCTVSGYSISSDFAWNWIRQPPGKGLEWMGYISYSGNTRYQPSLKSRITISRDTSKNQFFLKLNSVTAADTATYYCVTAGRGFPYWGQGTLVTVSS
VL: DIQMTQSPSSLSASVGDRVTITCRASQDVSTAVAWYQQKPGKAPKLLIYSASFLYSGVPSRFSGSGSGTDFTLTISSLQPEDFATYYCQQSYTTPPTFGQGTKVEIKRTVAAPDIQMTQSPSSMSVSVGDRVTITCHSSQDINSNIGWLQQKPGKSFKGLIYHGTNLDDGVPSRFSGSGSGTDYTLTISSLQPEDFATYYCVQYAQFPWTFGGGTKLEIKR
notes: as for B4
EC50 (EGFR [1]): 107 nM
EC50 (VEGF [2]): 4.08 nM

B6: DVD839 (bispecific antibody)
VH: QVQLQESGPGLVKPSQTLSLTCTVSGYSISSDFAWNWIRQPPGKGLEWMGYISYSGNTRYQPSLKSRITISRDTSKNQFFLKLNSVTAADTATYYCVTAGRGFPYWGQGTLVTVSSASTKGPEVQLVESGGGLVQPGGSLRLSCAASGYTFTNYGMNWVRQAPGKGLEWVGWINTYTGEPTYAADFKRRFTFSLDTSKSTAYLQMNSLRAEDTAVYYCAKYPHYYGSSHWYFDVWGQGTLVTVSS
VL: DIQMTQSPSSMSVSVGDRVTITCHSSQDINSNIGWLQQKPGKSFKGLIYHGTNLDDGVPSRFSGSGSGTDYTLTISSLQPEDFATYYCVQYAQFPWTFGGGTKLEIKRTVAAPSVFIFPPDIQMTQSPSSLSASVGDRVTITCSASQDISNYLNWYQQKPGKAPKVLIYFTSSLHSGVPSRFSGSGSGTDFTLTISSLQPEDFATYYCQQYSTVPWTFGQGTKVEIKR
notes: DVD-Ig; HC S, LC L; variable parts only
EC50 (VEGF [3]): 0.26 nM
EC50 (EGFR [4]): 12.5 nM

B7: DVD849 (bispecific antibody)
VH: QVQLQESGPGLVKPSQTLSLTCTVSGYSISSDFAWNWIRQPPGKGLEWMGYISYSGNTRYQPSLKSRITISRDTSKNQFFLKLNSVTAADTATYYCVTAGRGFPYWGQGTLVTVSSASTKGPEVQLVESGGGLVQPGGSLRLSCAASGFTISDYWIHWVRQAPGKGLEWVAGITPAGGYTYYADSVKGRFTISADTSKNTAYLQMNSLRAEDTAVYYCARFVFFLPYAMDYWGQGTLVTVSS
VL: DIQMTQSPSSMSVSVGDRVTITCHSSQDINSNIGWLQQKPGKSFKGLIYHGTNLDDGVPSRFSGSGSGTDYTLTISSLQPEDFATYYCVQYAQFPWTFGGGTKLEIKRTVAAPSVFIFPPDIQMTQSPSSLSASVGDRVTITCRASQDVSTAVAWYQQKPGKAPKLLIYSASFLYSGVPSRFSGSGSGTDFTLTISSLQPEDFATYYCQQSYTTPPTFGQGTKVEIKR
notes: as for B6
EC50 (VEGF [3]): 59.6 nM
EC50 (EGFR [4]): 12.3 nM

B8: DVD851 (bispecific antibody)
VH: QVQLQESGPGLVKPSQTLSLTCTVSGYSISSDFAWNWIRQPPGKGLEWMGYISYSGNTRYQPSLKSRITISRDTSKNQFFLKLNSVTAADTATYYCVTAGRGFPYWGQGTLVTVSSASTKGPEVQLVESGGGLVQPGGSLRLSCAASGFTINASWIHWVRQAPGKGLEWVGAIYPYSGYTNYADSVKGRFTISADTSKNTAYLQMNSLRAEDTAVYYCARWGHSTSPWAMDYWGQGTLVTVSS
VL: DIQMTQSPSSMSVSVGDRVTITCHSSQDINSNIGWLQQKPGKSFKGLIYHGTNLDDGVPSRFSGSGSGTDYTLTISSLQPEDFATYYCVQYAQFPWTFGGGTKLEIKRTVAAPSVFIFPPDIQMTQSPSSLSASVGDRVTITCRASQVIRRSLAWYQQKPGKAPKLLIYAASNLASGVPSRFSGSGSGTDFTLTISSLQPEDFATYYCQQSNTSPLTFGQGTKVEIKR
notes: as for B6
EC50 (VEGF [3]): 28.4 nM
EC50 (EGFR [4]): 9.36 nM

B9: DVD337 (bispecific antibody)
VH: QVQLQESGPGLVKPSQTLSLTCTVSGYSISSDFAWNWIRQPPGKGLEWMGYISYSGNTRYQPSLKSRITISRDTSKNQFFLKLNSVTAADTATYYCVTAGRGFPYWGQGTLVTVSSASTKGPEVQLVESGGGLVQPGGSLRLSCAASGYTFTNYGMNWVRQAPGKGLEWVGWINTYTGEPTYAADFKRRFTFSLDTSKSTAYLQMNSLRAEDTAVYYCAKYPHYYGSSHWYFDVWGQGTLVTVSS
VL: DIQMTQSPSSMSVSVGDRVTITCHSSQDINSNIGWLQQKPGKSFKGLIYHGTNLDDGVPSRFSGSGSGTDYTLTISSLQPEDFATYYCVQYAQFPWTFGGGTKLEIKRTVAAPDIQMTQSPSSLSASVGDRVTITCSASQDISNYLNWYQQKPGKAPKVLIYFTSSLHSGVPSRFSGSGSGTDFTLTISSLQPEDFATYYCQQYSTVPWTFGQGTKVEIKR
notes: DVD-Ig; HC S, LC S; variable parts only
EC50 (VEGF [3]): 0.57 nM
EC50 (EGFR [4]): 6.5 nM

B10: DVD757 (bispecific antibody)
VH: QVQLQESGPGLVKPSQTLSLTCTVSGYSISSDFAWNWIRQPPGKGLEWMGYISYSGNTRYQPSLKSRITISRDTSKNQFFLKLNSVTAADTATYYCVTAGRGFPYWGQGTLVTVSSASTKGPEVQLVESGGGLVQPGGSLRLSCAASGFTISDYWIHWVRQAPGKGLEWVAGITPAGGYTYYADSVKGRFTISADTSKNTAYLQMNSLRAEDTAVYYCARFVFFLPYAMDYWGQGTLVTVSS
VL: DIQMTQSPSSMSVSVGDRVTITCHSSQDINSNIGWLQQKPGKSFKGLIYHGTNLDDGVPSRFSGSGSGTDYTLTISSLQPEDFATYYCVQYAQFPWTFGGGTKLEIKRTVAAPDIQMTQSPSSLSASVGDRVTITCRASQDVSTAVAWYQQKPGKAPKLLIYSASFLYSGVPSRFSGSGSGTDFTLTISSLQPEDFATYYCQQSYTTPPTFGQGTKVEIKR
notes: as for B9
EC50 (VEGF [3]): 528 nM
EC50 (EGFR [4]): 14.5 nM

B11: DVD759 (bispecific antibody)
VH: QVQLQESGPGLVKPSQTLSLTCTVSGYSISSDFAWNWIRQPPGKGLEWMGYISYSGNTRYQPSLKSRITISRDTSKNQFFLKLNSVTAADTATYYCVTAGRGFPYWGQGTLVTVSSASTKGPEVQLVESGGGLVQPGGSLRLSCAASGFTINASWIHWVRQAPGKGLEWVGAIYPYSGYTNYADSVKGRFTISADTSKNTAYLQMNSLRAEDTAVYYCARWGHSTSPWAMDYWGQGTLVTVSS
VL: DIQMTQSPSSMSVSVGDRVTITCHSSQDINSNIGWLQQKPGKSFKGLIYHGTNLDDGVPSRFSGSGSGTDYTLTISSLQPEDFATYYCVQYAQFPWTFGGGTKLEIKRTVAAPDIQMTQSPSSLSASVGDRVTITCRASQVIRRSLAWYQQKPGKAPKLLIYAASNLASGVPSRFSGSGSGTDFTLTISSLQPEDFATYYCQQSNTSPLTFGQGTKVEIKR
notes: as for B9
EC50 (VEGF [3]): 128 nM
EC50 (EGFR [4]): 7.01 nM
